Data on three substances can be found in doi:10.1101/2023.08.28.555187.

The target of test [1] is soluble Fc-tagged VEGFR3. The test is described as follows: ELISA.
The target of test [2] is decorin protein core (UniProt P07585). The test is described as follows: ELISA.

Chain of decorin protein core (P07585 31-359): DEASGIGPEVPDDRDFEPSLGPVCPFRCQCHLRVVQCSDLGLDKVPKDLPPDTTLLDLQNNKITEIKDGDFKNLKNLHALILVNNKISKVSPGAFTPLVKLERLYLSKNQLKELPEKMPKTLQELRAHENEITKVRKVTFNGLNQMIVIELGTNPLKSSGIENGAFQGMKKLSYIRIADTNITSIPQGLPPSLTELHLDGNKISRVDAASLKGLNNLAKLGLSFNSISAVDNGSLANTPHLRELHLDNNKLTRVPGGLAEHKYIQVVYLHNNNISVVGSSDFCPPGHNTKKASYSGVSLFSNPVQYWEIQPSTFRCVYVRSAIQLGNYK

“VEGFC (from UniProt P49767 32-227) (ligand)” displayed a percent of bound decorin protein core displaced in test [1] of 20%.

For the substance “decorin protein core (from UniProt P07585 31-359) (natural protein)”, in test [1], the Kd (usually the free concentration of one partner at which half of the binding sites on the other are occupied at equilibrium, for simple one-to-one binding) came to 27 nM.

In the case of soluble Fc-tagged VEGFR3 (Fc fusion), the Kd in test [2] was 47 nM.
